# According to patent US20250000946A1 (WUXI BIOLOGICS IRELAND, published 2025):
# Read-outs that look alike come from different tables or passages of the source.
# T1: Human IL-2Rβ/γ (intermediate affinity IL-2 receptor) (human, UniProt P14784 27-551; P31785 23-369)
# T1 construct: whole, on cells; also called IL-2Rβ/γc; IL-2Rβ (CD122) and γ (CD132)
# T1 sequence (looked up) 1: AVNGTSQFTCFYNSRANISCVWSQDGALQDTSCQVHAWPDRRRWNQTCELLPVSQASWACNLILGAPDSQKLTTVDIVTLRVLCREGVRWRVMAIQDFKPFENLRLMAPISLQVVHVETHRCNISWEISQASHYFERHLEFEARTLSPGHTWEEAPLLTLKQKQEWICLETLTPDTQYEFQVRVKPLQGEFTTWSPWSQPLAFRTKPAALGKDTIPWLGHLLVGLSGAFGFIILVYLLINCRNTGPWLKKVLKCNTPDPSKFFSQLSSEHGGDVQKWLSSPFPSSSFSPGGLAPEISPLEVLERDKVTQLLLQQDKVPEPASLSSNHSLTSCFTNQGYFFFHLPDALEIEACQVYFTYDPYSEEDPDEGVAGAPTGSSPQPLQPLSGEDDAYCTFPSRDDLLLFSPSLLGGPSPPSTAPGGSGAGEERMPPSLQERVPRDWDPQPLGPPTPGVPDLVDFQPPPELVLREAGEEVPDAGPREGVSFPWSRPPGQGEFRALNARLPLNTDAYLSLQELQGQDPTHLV
# T1 sequence (looked up) 2: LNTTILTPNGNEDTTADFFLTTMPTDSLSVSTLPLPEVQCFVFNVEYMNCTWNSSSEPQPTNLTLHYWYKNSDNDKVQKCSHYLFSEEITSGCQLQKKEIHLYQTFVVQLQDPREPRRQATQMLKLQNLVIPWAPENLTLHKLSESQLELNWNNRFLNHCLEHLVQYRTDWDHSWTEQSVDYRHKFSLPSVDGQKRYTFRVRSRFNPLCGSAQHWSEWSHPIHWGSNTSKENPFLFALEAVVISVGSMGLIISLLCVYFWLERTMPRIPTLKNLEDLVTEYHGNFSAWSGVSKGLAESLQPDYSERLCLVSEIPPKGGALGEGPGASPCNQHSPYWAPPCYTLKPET
# T2: Human IL-2Rα/β/γ complex (high affinity IL-2 receptor) (human, UniProt P01589 22-272; P14784 27-551; P31785 23-369)
# T2 construct: whole, on cells
# T2 sequence (looked up) 1: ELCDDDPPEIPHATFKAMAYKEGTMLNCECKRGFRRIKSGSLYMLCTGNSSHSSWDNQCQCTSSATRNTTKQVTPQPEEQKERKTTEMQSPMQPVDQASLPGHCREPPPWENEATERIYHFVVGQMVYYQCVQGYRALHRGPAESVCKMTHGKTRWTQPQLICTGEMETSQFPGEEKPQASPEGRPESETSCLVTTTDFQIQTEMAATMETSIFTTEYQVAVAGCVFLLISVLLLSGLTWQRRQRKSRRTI
# T2 sequence (looked up) 2: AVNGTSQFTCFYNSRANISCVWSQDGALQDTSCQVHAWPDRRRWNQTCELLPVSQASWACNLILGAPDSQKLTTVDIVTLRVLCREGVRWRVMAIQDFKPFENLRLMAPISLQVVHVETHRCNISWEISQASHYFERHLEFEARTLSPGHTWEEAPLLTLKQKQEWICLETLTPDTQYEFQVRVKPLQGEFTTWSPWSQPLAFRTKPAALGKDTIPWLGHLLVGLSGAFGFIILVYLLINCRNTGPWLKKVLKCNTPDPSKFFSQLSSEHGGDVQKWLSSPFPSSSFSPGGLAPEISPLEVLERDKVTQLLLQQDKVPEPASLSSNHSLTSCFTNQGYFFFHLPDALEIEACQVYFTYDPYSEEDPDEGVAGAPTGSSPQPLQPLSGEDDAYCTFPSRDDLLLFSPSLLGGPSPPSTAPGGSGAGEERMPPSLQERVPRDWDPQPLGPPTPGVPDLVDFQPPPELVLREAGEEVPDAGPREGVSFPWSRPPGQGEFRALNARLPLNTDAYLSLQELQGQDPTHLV
# T2 sequence (looked up) 3: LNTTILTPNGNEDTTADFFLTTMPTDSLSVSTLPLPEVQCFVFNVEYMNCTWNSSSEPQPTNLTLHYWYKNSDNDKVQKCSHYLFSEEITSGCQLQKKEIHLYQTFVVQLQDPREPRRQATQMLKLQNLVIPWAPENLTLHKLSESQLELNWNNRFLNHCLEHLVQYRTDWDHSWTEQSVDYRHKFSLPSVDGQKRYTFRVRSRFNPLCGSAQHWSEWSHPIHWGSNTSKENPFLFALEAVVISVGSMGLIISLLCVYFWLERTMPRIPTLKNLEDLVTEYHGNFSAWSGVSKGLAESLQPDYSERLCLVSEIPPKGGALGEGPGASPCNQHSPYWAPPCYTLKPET
# Legend:
# [1] = molecular target: T1, Human IL-2Rβ/γ (intermediate affinity …); test: FACS, HH cells
# Description: (§1) Human cutaneous T cell lymphoma HH cells, malignant non-Hodgkin's lymphoma NK92 cells and cutaneous T cell lymphoma MJ20 cells were used for binding assay. They both constitutively express IL-2Rβ (CD122) and […] (CD132), and NK92 and MJ20 also expresses IL-2Rα (CD25). HH, NK92 and MJ20 cells were cultured following ATCC guidance, then transferred to a 96-plate for binding analysis. Cells were incubated with IL-2/Fc fusion proteins at the indicated concentrations for 30 min at 4° C. to avoid internalization. Binding was detected by 2nd antibody of PE-anti-human Fc at 4° C. for another 30 min. The median fluorescence intensity (MFI) on HH and NK92 cells was measured using FACS.
# [2] = molecular target: T1, Human IL-2Rβ/γ (intermediate affinity …); test: FACS, HH cells; EC50 fold vs T2U0.E44-1
# Description: as §1
# [3] = molecular target: T2, Human IL-2Rα/β/γ complex (high affinity …); test: FACS, MJ20 cells
# Description: as §1
# (§2) Affinity of IL-2 variants to IL-2Rα/β/γ supported the same results (FIG. 8 and Table 7). […] And T2U0.E44-26, T2U0.E44-27, T2U0.E44-29 and T2U0.E44-30 induced hundreds to thousands affinity reduction in Treg compared to T2U0.E44-1. Binding curves in MJ20 cells (IL-2Rα/β/γ) also achieved similar trend (FIG. 8b). As a result, the method of C-terminal truncation and substitution of 129 was available to achieve IL-2Rβγ attenuated IL-2 variants.
# [4] = molecular target: T1, Human IL-2Rβ/γ (intermediate affinity …); test: FACS, HH cells; remark: listed apart in the source
# Description: as §1
# [5] = molecular target: T1, Human IL-2Rβ/γ (intermediate affinity …); test: FACS, HH cells; EC50 fold vs T2U0.E44-1; remark: listed apart in the source
# Description: as §1
# [6] = molecular target: T2, Human IL-2Rα/β/γ complex (high affinity …); test: FACS, NK92 cells; EC50 fold vs T2U0.E44-1
# Description: as §1
# [7] = molecular target: T2, Human IL-2Rα/β/γ complex (high affinity …); test: FACS, MJ20 cells; EC50 fold vs T2U0.E44-1
# Description: as §1, §2
# [8] = molecular target: T1, Human IL-2Rβ/γ (intermediate affinity …); test: cell-based or functional assay
# [9] = molecular target: T2, Human IL-2Rα/β/γ complex (high affinity …); test: cell-based or functional assay
# [10] = molecular target: T1, Human IL-2Rβ/γ (intermediate affinity …); test: cell-based or functional assay; remark: listed apart in the source
# [11] = molecular target: T2, Human IL-2Rα/β/γ complex (high affinity …); test: cell-based or functional assay; remark: listed apart in the source
# [12] = molecular target: T2, Human IL-2Rα/β/γ complex (high affinity …); test: FACS, NK92 cells
# Description: as §1
binder,measurement,setting,value
"W3XX115-T2U0.E44-6.uIgG4V1 (Fc fusion, IL-2 with C-terminal 4 aa (STLT) deleted; E44 format, IgG4) APTSSSTKKTQLQLEHLLLDLQMILNGINNYKNPKLTRMLTFKFYMPKKATELKHLQCLEEELKPLEEVLNLAQSKNFHLRPRDLISNINVIVLELKGSETTFMCEYADETATIVEFLNRWITFCQSIIESKYGPPCPPCPAPEFLGGPSVFLFPPKPKDTLMISRTPEVTCVVVDVSQEDPEVQFNWYVDGVEVHNAKTKPREEQFNSTYRVVSVLTVLHQDWLNGKEYKCKVSNKGLPSSIEKTISKAKGQPREPQVYTLPPCQEEMTKNQVSLWCLVKGFYPSDIAVEWESNGQPENNYKTTPPVLDSDGSFFLYSRLTVDKSRWQEGNVFSCSVMHEALHNHYTQKSLSLSLG heavy: EIQLQQSGPELVKPGASVKVSCKASGYSFTDYNMYWVKQSHGESLEWIGYIDPYNGGTRYNQKFKGKATLTVDKSSSTAFMHLNSLTSEDSAVYYCARNGHWDGAWFAYWGQGTLVTVSAASTKGPSVFPLAPCSRSTSESTAALGCLVKDYFPEPVTVSWNSGALTSGVHTFPAVLQSSGLYSLSSVVTVPSSSLGTKTYTCNVDHKPSNTKVDKRVESKYGPPCPPCPAPEFLGGPSVFLFPPKPKDTLMISRTPEVTCVVVDVSQEDPEVQFNWYVDGVEVHNAKTKPREEQFNSTYRVVSVLTVLHQDWLNGKEYKCKVSNKGLPSSIEKTISKAKGQPREPQVCTLPPSQEEMTKNQVSLSCAVKGFYPSDIAVEWESNGQPENNYKTTPPVLDSDGSFFLVSRLTVDKSRWQEGNVFSCSVMHEALHNHYTQKSLSLSLG light: DIQMNQSPSSLSASLGDTITITCHASQNINVWLSWYQQKPGNIPKLLIYKASNLHTGVPSRFSGSRSGTGFTLTISSLQPEDIATYYCHQGQSYPFTFGSGTKLEIKRTVAAPSVFIFPPSDEQLKSGTASVVCLLNNFYPREAKVQWKVDNALQSGNSQESVTEQDSKDSTYSLSSTLTLSKADYEKHKVYACEVTHQGLSSPVTKSFNRGEC",EC50,[1],533 nM
same,Affinity reduction,[2],9.9 fold
same,EC50,[3],56.6 nM
same,EC50,[4],437 nM
same,Affinity reduction,[5],14.1 fold
same,Affinity reduction,[6],2.48 fold
same,Affinity reduction,[7],4 fold
same,Potency in human CD8+ T EC50,[8],360 nM
same,Potency reduction (CD8+ T),[8],18 fold
same,Potency in human Treg EC50,[9],0.032 nM
same,Potency reduction (Treg),[9],12.6 fold
same,Potency in human CD8+ T EC50,[10],175 nM
same,Potency reduction (CD8+ T),[10],18.3 fold
same,Potency in human Treg EC50,[11],1.51 nM
same,Potency reduction (Treg),[11],58.4 fold
same,EC50,[12],13.7 nM
